Test [1] concerns the target T1, human ICOS-hFc (human, UniProt Q9Y6W8 21-140).
T1 construct: Commercial protein; also called ICOS (ACRO); not shown: human Fc (hFc)
T1 sequence (looked up): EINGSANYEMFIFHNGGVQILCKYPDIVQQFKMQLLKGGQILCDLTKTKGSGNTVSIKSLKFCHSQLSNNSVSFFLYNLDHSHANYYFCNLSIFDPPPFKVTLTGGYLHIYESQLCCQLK
In words: ELISA, antigen coated at 1 µg/mL, antibody 10 µg/mL. From the text:
(§1) The anti-PD-1 mouse monoclonal antibody was allowed to bind with four different member proteins of CD28 family to verify the specificity of the antibody in binding to PD-1. […] A horse radish peroxidase (HRP)-coupled anti-mouse IgG(Sigma) was used as the secondary antibody. After developed with TMB and terminated, it was read for an OD450 value with a microplate reader.
A general note: An ELISA detects its analyte on a solid surface through an enzyme-linked reagent.

For the next test, the target named is T2, human PD-1-hFc (human, UniProt Q15116 25-167).
T2 construct: Commercial protein; also called PD-1 (ACRO); not shown: human Fc (hFc)
Described as above.
Text: as §1

For test [2], the target named is T3, human CTLA4-hFc (human, UniProt P16410 37-162, limits assumed).
T3 construct: Commercial protein; also called CTLA-4 (ACRO); not shown: human Fc (hFc)
Described as above.
Text: as §1

The target of test [3] is T4, human CD28-hFc (human, UniProt P10747 19-152).
T4 construct: Commercial protein; also called CD28 (ACRO); not shown: human Fc (hFc)
The test is described as above.
Text: as §1

The target of test [4] is T5, PD-1-his (ACRO) recombinant protein (UniProt Q15116 25-167).
T5 construct: Commercial protein; not shown: his tag
Briefly: BLI (ForteBio Octet), PD-1-his loaded on sensor, antibody in solution. On the procedure:
Finally, analysis was conducted by utilizing a kinetic model.

Test [5] deals with T6, recombinant human PD-1 expressed on the surface of CHO cells (CHO-hPD1) (human, UniProt Q15116 25-288).
T6 construct: whole, on cells; also called CHO-PD1; hPD1-transfected CHO cells
Briefly: flow cytometry, blocking of PD-L1-hFc binding to CHO-hPD1, mode 2 (antibody first). On the procedure: (§2) The ability of the anti-PD-1 mouse monoclonal antibody to block the binding of the ligand to a PD-1 stably expressed on the surface of transfected CHO cells was analyzed by a flow cytometer.
(§3) The cells were centrifuged at 300 g for 5 minutes, washed once with the buffer, added with a PE-labeled goat anti-human IgG fluorescent antibody (Biolegend), and incubated at 4° C. for 30 minutes. The cells were centrifuged and washed once, then resuspended in PBS, and subsequently analyzed by a CytoFlex flow cytometer to detect the quantity of the ligand protein bound to the cells, and calculate the IC₅₀ value of the PD-1 antibody in blocking the binding.
A general note: A flow cytometer gives signals particle by particle.

For test [6], the target named is T7, PD1 naturally expressed by activated human lymphocytes (PHA-activated PBMC) (human, UniProt Q15116 25-288).
T7 construct: whole, on cells; Also used as the target for the mixed lymphocyte reaction (human T cells)
In words: flow cytometry on PHA-activated human PBMC. On the procedure:
After being obtained from fresh human peripheral blood by gradient centrifugation of lymphatic separation medium, the PBMCs were adjusted to the density of 1×10⁶ cells/mL and inoculated into T75, and meanwhile added with PHA-L (Sigma) at a final concentration of 1 μg/mL to stimulate the proliferation of lymphocytes. After being allowed to stand in an incubator at 37° C. and 5% CO₂ for 3 days, the cell suspension was taken out and centrifuged. […] The cells were washed once with the buffer, and added with a PE-labeled goat anti-human IgG fluorescent antibody (Biolegend), and incubated at 4° C. for 30 minutes.

The target in test [7] is T8, mouse PD1 expressed on the surface of CHO cells (CHO-mousePD1) (mouse, UniProt Q02242 25-288).
T8 construct: whole, on cells; also called CHO-mPD1
T8 sequence (looked up): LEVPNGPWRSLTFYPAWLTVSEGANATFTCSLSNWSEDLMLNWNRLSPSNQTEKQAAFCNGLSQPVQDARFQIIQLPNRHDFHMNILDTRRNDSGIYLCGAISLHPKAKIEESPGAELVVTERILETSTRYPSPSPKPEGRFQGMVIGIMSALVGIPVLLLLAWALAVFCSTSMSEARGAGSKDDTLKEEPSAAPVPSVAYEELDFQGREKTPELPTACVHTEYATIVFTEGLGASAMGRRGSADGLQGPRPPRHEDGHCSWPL
In words: flow cytometry on CHO-mousePD1 cells. On the procedure:
(§4) In order to evaluate the binding of the anti-PD-1 mouse monoclonal antibody to the CHO-h PD1, 2×10⁵ CHO-hPD1 cells and an anti-PD-1 mouse monoclonal antibody diluted in concentration gradient (with an initial concentration of 10 μg/mL, and diluted in 3-fold gradient) were added into a 96-well plate, and incubated at 4° C. for 30 minutes. The cells were washed once with a buffer (PBS containing 3% BSA) and then added with a PE-labeled anti-mouse IgG (Fc) Ab (Biolegend) fluorescent secondary antibody, incubated at 4° C. for 30 minutes, then washed once with the buffer and subsequently resuspended in PBS. Thereafter, the cell suspension was subjected to flow cytometric analysis by CytoFlex (Beckman flow cytometer), and the quantity of the antibody bound to the cells was measured according to the mean fluorescence intensity (MFI) of the staining. The same method was used for evaluating the binding of the anti-PD-1 mouse monoclonal antibody to the CHO-cyno cells and the CHO-mousePD1 (sometimes abbreviated as “CHO-mPD1” in the application) cells.

For test [8], the target named is T6, recombinant human PD-1 expressed on the …. In words: flow cytometry, blocking of PD-L1-hFc binding to CHO-hPD1, mode 1 (ligand first). On the procedure: as §2, §3
For test [9], the target named is T9, monkey PD1 expressed on the surface of CHO cells (CHO-cynoPD1) (monkey).
T9 construct: whole, on cells
In words: flow cytometry on CHO-cynoPD1 cells. On the procedure:
as §4

Test [10] deals with T6, recombinant human PD-1 expressed on the …. In words: flow cytometry on CHO-hPD1 cells. On the procedure:
as §4

Test [11] concerns the target T1, human ICOS-hFc. Briefly: ELISA, antigen coated at 1 µg/mL. The source says: (§5) A horse radish peroxidase (HRP)-coupled anti-human IgG (F) was used as the secondary antibody. After developed with TMB and terminated, it was read for an OD450 value with a microplate reader.
Test [12] has as its target T3, human CTLA4-hFc. Briefly: ELISA, antigen coated at 1 µg/mL.
Text: as §5

Test [13] concerns the target T4, human CD28-hFc. Briefly: ELISA, antigen coated at 1 µg/mL.
Text: as §5

Test [14] concerns the target T6, recombinant human PD-1 expressed on the …. In words: flow cytometry, blocking of PD-L2-hFc binding to CHO-hPD1, mode 1 (ligand first). On the procedure:
as §2, §3

Test [15] shares this target. In words: flow cytometry, blocking of PD-L2-hFc binding to CHO-hPD1, mode 2 (antibody first). On the procedure: as §2, §3

T6 sequence (Q15116 25-288): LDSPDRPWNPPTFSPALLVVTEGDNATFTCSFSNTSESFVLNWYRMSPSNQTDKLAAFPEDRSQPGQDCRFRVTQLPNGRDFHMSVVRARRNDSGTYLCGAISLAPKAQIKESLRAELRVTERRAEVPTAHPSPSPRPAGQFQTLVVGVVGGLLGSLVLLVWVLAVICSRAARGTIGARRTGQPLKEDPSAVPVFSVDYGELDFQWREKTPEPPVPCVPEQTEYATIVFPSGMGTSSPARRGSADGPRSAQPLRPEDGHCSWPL
T5 sequence (Q15116 25-167 limits assumed): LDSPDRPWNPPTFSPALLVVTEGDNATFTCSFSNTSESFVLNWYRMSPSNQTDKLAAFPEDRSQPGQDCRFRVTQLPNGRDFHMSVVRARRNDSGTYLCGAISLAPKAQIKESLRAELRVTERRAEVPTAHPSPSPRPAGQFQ
T3 sequence (P16410 37-162 limits assumed): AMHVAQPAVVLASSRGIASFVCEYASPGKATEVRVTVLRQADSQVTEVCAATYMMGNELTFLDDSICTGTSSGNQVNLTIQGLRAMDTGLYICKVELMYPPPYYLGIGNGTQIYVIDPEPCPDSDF
T7 sequence (Q15116 25-288): as the sequence (Q15116 25-288) above
T2 sequence (Q15116 25-167 limits assumed): as the sequence (Q15116 25-167 limits assumed) above

B1: anti-PD-1 mouse monoclonal antibody PD-1-112-C2 (antibody, V domains shown)
VH: QVQLQQPGAELVKPGASVKLSCKASGYTFTTYYMYWVKQRPGQGLEWIGGINPSNGGTNFNEKFKSKATLTVDKSSSTAYMQLSSLTSEDSAVYYCTRRDSNYDGGFDYWGQGTTLTVSS
VL: DIVLTQSPASLAVSLGQRATISCRASKSVSTSGYSYMHWYQQKPGQPPKLLIYLAYHLESGVPARFSGSGSGTDFTLNIHPVEEEDAATYYCQHSWELPITFGSGTKLEIKR
notes: Mouse monoclonal antibody from a hybridoma
For B1, the OD450 was determined as 0.062 OD450 with human ICOS-hFc [1], 2.12 OD450 with human PD-1-hFc, 0.131 OD450 with human CTLA4-hFc [2] and 0.0625 OD450 in the test with human CD28-hFc [3]. The Kd in test [4] stood at 0.0435 nM. Also, the koff in test [4] amounted to 3.18e-05 s⁻¹. Further, the kon in test [4] stood at 732000 M⁻¹ s⁻¹. Besides, the IC50 in test [5] is 1.55 nM; in test [8] it was 2.57 nM; in test [14] it was 4.61 nM; in [15] it was 3.73 nM. The EC50 came out at 0.109 nM in test [6], 0.463 nM in test [9] and 0.739 nM in [10]. In addition, the binding result in test [7] is recorded as “no binding (tested: initial concentration of 10 µg/mL)”; with human ICOS-hFc [11] it was “no binding (tested: 10 µg/mL)”; in the test with human CTLA4-hFc [12], “no binding (tested: 10 µg/mL)”; in the test with human CD28-hFc [13], “no binding (tested: 10 µg/mL)”.

What is called Kd is the free concentration of one partner at which half of the binding sites on the other are occupied at equilibrium, for simple one-to-one binding. By koff is commonly meant the first-order rate constant of dissociation. As usually defined, the kon is the second-order rate constant of association. For orientation: IC50 means the midpoint of a concentration-inhibition curve. In general, EC50 refers to the concentration needed to bring the measured effect to its halfway point.

For the origin of these results see patent US20240287184A1 (GUANGDONG FAPON BIOPHARMA, published 2024).
